Holding throughout (experiment): holdup assay
Set-up in all cases: key: below the threshold = too weak to quantify, mostly under pKd 3.1 to 4
Common to all, as to conditions: plain residues with an end cap or a label only (N-terminal biotin on a linker: ttds)

The target of assay [1] is PDLIM4, P50479.
The target of assay [2] is T1, PDZD7_1, Q9H5P4.
T1 sequence (Q9H5P4 81-178, limits assumed, looked up): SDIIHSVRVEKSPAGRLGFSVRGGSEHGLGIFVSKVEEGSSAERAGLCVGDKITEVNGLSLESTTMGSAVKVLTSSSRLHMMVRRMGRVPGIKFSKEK

In assay [3] the target is MAGI1_3, Q96QZ7.
MAGI1_3, Q96QZ7, sequence (Q96QZ7 638-725): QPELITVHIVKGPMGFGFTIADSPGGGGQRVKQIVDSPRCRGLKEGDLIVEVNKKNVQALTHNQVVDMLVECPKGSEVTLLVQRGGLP
Assay [4] has as its target T2, NHERF3_2, Q5T2W1.
T2 sequence (Q5T2W1 129-225, limits assumed, looked up): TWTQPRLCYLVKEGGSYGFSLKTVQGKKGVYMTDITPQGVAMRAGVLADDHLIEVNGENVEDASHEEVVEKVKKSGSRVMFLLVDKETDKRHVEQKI

Assay [5] concerns the target PARD3B_3, Q8TEW8.
Assay [6] has as its target PDZRN4_2, Q6ZMN7.
Assay [7] concerns the target DLG2_1, Q15700.
Assay [8] concerns the target MAGIX, Q9H6Y5.
Assay [9] addresses T3, PDZD2_3, O15018.
T3 sequence (O15018 581-682, limits assumed, looked up): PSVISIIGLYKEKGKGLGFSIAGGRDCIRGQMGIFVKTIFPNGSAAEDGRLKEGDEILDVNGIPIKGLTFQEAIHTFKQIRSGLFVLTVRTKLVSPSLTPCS

In assay [10] the target is T4, SHANK3, Q9BYB0.
T4 sequence (Q9BYB0 641-750, limits assumed, looked up): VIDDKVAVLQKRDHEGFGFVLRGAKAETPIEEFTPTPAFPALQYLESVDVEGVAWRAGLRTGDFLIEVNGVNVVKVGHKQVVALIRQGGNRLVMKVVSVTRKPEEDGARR

For assay [11], the target named is T5, USH1C_2, Q9Y6N9.
T5 sequence (Q9Y6N9 206-303, limits assumed, looked up): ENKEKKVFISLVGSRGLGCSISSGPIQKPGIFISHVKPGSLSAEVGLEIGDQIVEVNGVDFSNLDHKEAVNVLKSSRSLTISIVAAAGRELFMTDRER

The target of assay [12] is T6, PTPN13_4, Q12923.
T6 sequence (Q12923 1783-1878, limits assumed, looked up): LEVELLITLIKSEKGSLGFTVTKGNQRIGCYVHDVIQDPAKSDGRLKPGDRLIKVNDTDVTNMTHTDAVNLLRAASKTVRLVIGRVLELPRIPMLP

Assay [13] has as its target MAGI1_6, Q96QZ7.
For assay [14], the target named is T7, USH1C_1, Q9Y6N9.
T7 sequence (Q9Y6N9 82-179, limits assumed, looked up): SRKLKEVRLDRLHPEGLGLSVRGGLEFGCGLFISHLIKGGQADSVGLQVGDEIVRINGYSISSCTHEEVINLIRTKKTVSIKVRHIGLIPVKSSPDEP

In assay [15] the target is T8, SHROOM4, Q9ULL8.
T8 sequence (Q9ULL8 5-102, limits assumed, looked up): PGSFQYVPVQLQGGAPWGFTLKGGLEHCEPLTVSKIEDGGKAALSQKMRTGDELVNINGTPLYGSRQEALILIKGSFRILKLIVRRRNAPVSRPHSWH

In assay [16] the target is T9, PDZD11, Q5EBL8.
T9 sequence (Q5EBL8 42-139, limits assumed, looked up): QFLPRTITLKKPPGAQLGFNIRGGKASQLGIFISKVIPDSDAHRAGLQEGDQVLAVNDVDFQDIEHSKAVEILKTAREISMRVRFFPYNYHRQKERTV

Assay [17] deals with RGS3, P49796-9.
RGS3, P49796-9, sequence (P49796 other isoform, or with tags, fused parts or gaps): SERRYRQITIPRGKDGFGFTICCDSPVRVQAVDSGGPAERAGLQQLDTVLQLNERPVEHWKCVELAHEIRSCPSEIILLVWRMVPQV
For assay [18], the target named is T10, PARD6B, Q9BYG5.
T10 sequence (Q9BYG5 152-260, limits assumed, looked up): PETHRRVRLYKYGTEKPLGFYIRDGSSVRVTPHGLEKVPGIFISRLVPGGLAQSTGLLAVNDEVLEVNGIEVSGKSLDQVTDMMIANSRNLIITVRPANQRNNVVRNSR

Assay [19] concerns the target RIMS1, Q86UR5.
The target in assay [20] is T11, PDZD2_6, O15018.
T11 sequence (O15018 2745-2839, limits assumed, looked up): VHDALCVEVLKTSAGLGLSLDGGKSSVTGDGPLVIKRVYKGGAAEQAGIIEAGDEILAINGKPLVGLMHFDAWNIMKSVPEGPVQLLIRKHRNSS

The target of assay [21] is T12, MPDZ_7, O75970.
T12 sequence (O75970 1146-1253, limits assumed, looked up): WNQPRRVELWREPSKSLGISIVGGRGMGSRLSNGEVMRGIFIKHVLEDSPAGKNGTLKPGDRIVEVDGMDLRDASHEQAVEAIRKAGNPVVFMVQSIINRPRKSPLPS

The target in assay [22] is T13, GRIP1_1, Q9Y3R0.
T13 sequence (Q9Y3R0 48-146, limits assumed, looked up): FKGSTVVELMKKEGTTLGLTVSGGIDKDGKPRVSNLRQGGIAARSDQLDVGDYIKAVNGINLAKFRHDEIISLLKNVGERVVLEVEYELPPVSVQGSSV

In assay [23] the target is T14, SNTB2, Q13425.
T14 sequence (Q13425 110-208, limits assumed, looked up): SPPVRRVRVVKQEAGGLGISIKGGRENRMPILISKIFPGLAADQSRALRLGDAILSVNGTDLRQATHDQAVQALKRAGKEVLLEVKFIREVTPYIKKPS

Data on five molecules can be found in article PMC9482650, “Quantitative fragmentomics allow affinity mapping of interactomes” (Nature Communications, 2022).

A word on the pKd: it is −log10 of the Kd, conventionally taken in molar units.

RIMS1, Q86UR5, sequence (Q86UR5 584-692): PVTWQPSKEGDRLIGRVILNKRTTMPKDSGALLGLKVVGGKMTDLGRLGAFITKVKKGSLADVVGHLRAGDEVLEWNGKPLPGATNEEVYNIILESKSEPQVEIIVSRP
MAGI1_6, Q96QZ7, sequence (Q96QZ7 1146-1238): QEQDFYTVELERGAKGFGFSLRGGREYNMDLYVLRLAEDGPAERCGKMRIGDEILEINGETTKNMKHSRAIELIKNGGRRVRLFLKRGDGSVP
MAGIX, Q9H6Y5, sequence (Q9H6Y5 118-211): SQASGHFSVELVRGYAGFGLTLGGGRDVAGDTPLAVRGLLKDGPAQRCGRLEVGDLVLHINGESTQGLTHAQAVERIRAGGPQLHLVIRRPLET
PDLIM4, P50479, sequence (P50479 1-83): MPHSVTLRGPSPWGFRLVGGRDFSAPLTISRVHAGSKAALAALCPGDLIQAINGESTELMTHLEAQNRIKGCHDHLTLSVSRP
PARD3B_3, Q8TEW8, sequence (Q8TEW8 490-594): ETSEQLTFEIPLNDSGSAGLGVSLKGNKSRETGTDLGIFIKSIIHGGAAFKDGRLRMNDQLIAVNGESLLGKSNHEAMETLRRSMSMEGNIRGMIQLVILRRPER
PDZRN4_2, Q6ZMN7, sequence (Q6ZMN7 389-498): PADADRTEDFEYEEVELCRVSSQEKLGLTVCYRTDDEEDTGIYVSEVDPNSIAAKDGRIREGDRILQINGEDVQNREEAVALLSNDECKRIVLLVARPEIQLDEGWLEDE

In the case of SEKHFRETEV [HTLV1-TAX1, P03409], the pKd in assay [1] is 4.54; in assay [2], 3.85; in assay [3] it was 4.75; in assay [4], “below the threshold”; in assay [5], “below the threshold”; in [6], “below the threshold”. The pKd was 5.16 in assay [7]; “below the threshold” in assay [8]; “below the threshold” in assay [9]; “below the threshold” in assay [10]; “below the threshold” in [11]; “below the threshold” in [12]. In addition, the pKd is 4.41 in [13]; “below the threshold” in [14]; “below the threshold” in [15]; “below the threshold” in assay [16]; “below the threshold” in assay [17]; “below the threshold” in [18]. Besides, the pKd result is “below the threshold” in [19], “below the threshold” in assay [20], 4.44 in [21] and “below the threshold” in assay [22].
For the molecule CLDTSRETDL [KCNA5, P22460], the pKd in [1] is 4.26; in assay [23], 4.91; in [2] it was “below the threshold”; in assay [3], “below the threshold”; in [4] it was “below the threshold”; in [5] it was “below the threshold”. The pKd entry in assay [6], in assay [7], in [8], in [9], in assay [10] and in [11] was “below the threshold” each time. The pKd result in assay [12] was “below the threshold”; in [13] it was 4.55; in assay [14] it was “below the threshold”; in assay [15] it was “below the threshold”; in assay [16], “below the threshold”; in assay [17] it was “below the threshold”. The pKd entry in assay [18], in assay [19], in assay [20], in [21] and in [22] was “below the threshold” each time.
TGDTLEKFVEGL [CBP, Q92793]: the pKd entry in assay [1], in assay [23], in assay [2], in [3], in [4] and in assay [5] was “below the threshold” each time. Besides, the pKd entry in [6], in assay [7], in assay [8], in assay [9], in assay [10] and in assay [13] was “below the threshold” each time. Also, the pKd entry was “below the threshold” in [14]; 3.86 in assay [15]; “below the threshold” in assay [16]; 4.58 in assay [18]; 3.86 in [20]; “below the threshold” in [21]. Besides, in assay [22], the pKd result was “below the threshold”.
For DEDQHTQITKV [PTEN, P60484], the pKd entry in assay [1] was “below the threshold”; in [23] it was “below the threshold”; in assay [2], “below the threshold”; in [3] it was 4.5; in [4] it was “below the threshold”; in [5], “below the threshold”. The pKd entry in assay [6], in assay [7], in assay [8], in assay [9], in assay [13] and in assay [14] was “below the threshold” each time. Also, the pKd result was “below the threshold” in [15]; “below the threshold” in assay [16]; 4.25 in [18]; 3.56 in [20]; 3.71 in assay [21]; “below the threshold” in [22].
For the molecule RRVRKLPSTTL [RPS6KA1, Q15418], the pKd entry in assay [1], in assay [2], in assay [3], in assay [4], in assay [5] and in [6] was “below the threshold” throughout. Further, the pKd was 3.83 in [7]; “below the threshold” in assay [8]; “below the threshold” in assay [9]; 4.14 in assay [10]; “below the threshold” in assay [11]; “below the threshold” in assay [12]. Moreover, the pKd result in assay [13], in assay [15], in assay [16], in assay [17], in [18] and in assay [19] was “below the threshold” each time. Also, the pKd result in [20], in [21] and in assay [22] was “below the threshold” throughout.
